Test [1] has as its target T1, NCR3 as expressed on NK cells (human, UniProt O14931 19-201).
T1 construct: whole, on cells; Primary human peripheral blood NK cells; NK92MI cells in the bispecific cytotoxicity assay; also called peripheral blood NK cells; NCR3+ NK92MI cells
T1 sequence (looked up): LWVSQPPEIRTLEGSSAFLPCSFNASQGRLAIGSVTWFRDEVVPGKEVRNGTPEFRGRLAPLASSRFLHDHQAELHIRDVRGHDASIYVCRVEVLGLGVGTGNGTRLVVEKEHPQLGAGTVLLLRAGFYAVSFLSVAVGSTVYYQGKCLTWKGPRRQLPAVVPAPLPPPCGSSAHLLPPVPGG
The test is described as follows: flow cytometry, Fab titration on peripheral blood NK cells (FIG. S6). How it is done:
(§1) To evaluate the affinity of the selected antibodies for NK cells, we titrated the nine Fab clones on peripheral blood NK cells.
(§2) Titrations were performed on primary human NK cells or tetracycline induced overexpression cell lines as indicated. When tetracycline induced overexpression cell lines were used, cells were dosed with 10 μg/mL tetracycline for 2 days prior to staining. The starting concentration of each Fab or bispecific antibody was 1 μM, and serial 1:5 dilutions were performed. Antibodies were incubated with cells for 1 hr at 4° C., washed 2 times in 3% BSA in PBS pH 7.4, and stained for 30 min with an Alexafluor-647 conjugated goat anti-human IgG F(ab′)2 fragment (Jackson ImmunoResearch Laboratories) at a 1:50 dilution. After an additional 3 washes, cells were fixed and fluorescence was quantified using a CytoFLEX (Beckman Coulter). All flow cytometry data were analyzed using FlowJo software.
On the technique in general: In flow cytometry, cells or beads pass a laser one at a time.

Test [2] addresses T2, NCR3 extracellular domain TEV-cleavable Fc-fusion, biotinylated (human, UniProt O14931 19-135, biotinylated (site not stated)).
T2 construct: extracellular domain; Antigen of the phage selections and Fab-phage ELISAs; not shown: TEV cleavage site and Fc domain
T2 sequence (looked up): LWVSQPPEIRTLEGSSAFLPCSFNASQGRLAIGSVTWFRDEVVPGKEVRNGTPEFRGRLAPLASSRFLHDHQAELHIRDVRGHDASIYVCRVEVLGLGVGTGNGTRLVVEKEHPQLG
Nature of the test: Fab-phage selection and Fab-phage ELISA on biotinylated ECD Fc-fusion (antigen column of Table S1). How it is done: (§3) To generate antibodies against these antigens, we expressed the extracellular domains (ECDs) of these proteins as TEV-cleavable Fc-fusions and performed Fab-phage display selections to enrich for high affinity antibody binders (FIG. S1), as previously described [Hornsby, M. et al., Mol Cell Proteomics. 14(10), 2833-2847 (2015)]. After each selection, Fab-phage ELISAs were performed to determine the relative affinity and selectivity of these binders for their antigen targets (FIG. S2).
(§4) TEV-cleavable Fc-fusion proteins were expressed and biotinylated in Expi293F cells using the standard expression protocol. Media were harvested after 4 days of expression and protein was purified by protein A affinity chromatography. Phage selections were performed according to previously established protocols1 with the Fab-phage Library E2. Non-specific binders were depleted from the library by incubating the phage pool with Fc-domain immobilized on streptavidin beads. Fab phage were selected using biotinylated Fc-fusions that were captured on streptavidin-coated magnetic beads, and were released through TEV elution. Each selection consists of four rounds. With each round, decreasing amounts of Fc-fusions (1 μM, 100 nM, 10 nM, and […]) were used. ELISAs were performed for 96 individual Fab-phage clones from the third or fourth rounds of selection to evaluate for affinity and selectivity.
(§5) ELISAs were performed as previously described1. In brief, Maxisorp plates were coated with 10 μg/mL of Neutravidin overnight at 4° C. Biotinylated target antigen (20 nM) was captured on the Neutravidin coated plates for 30 min, and then exposed to a 1:5 dilution of phage supernatants for 30 min. Bound phage were detected via a horseradish-peroxidase-conjugated anti-phage monoclonal antibody (GE Lifesciences).
(An ELISA detects its analyte on a solid surface through an enzyme-linked reagent.)

In test [3] the target is T3, TNFSF4 extracellular domain fused to a generic transmembrane domain, on tetracycline-inducible FlpIn cells (UniProt P23510 51-183).
T3 construct: extracellular domain; also called OX40L; not shown: transmembrane domain of platelet-derived growth factor (so in the source) with a HA tag
T3 sequence (looked up): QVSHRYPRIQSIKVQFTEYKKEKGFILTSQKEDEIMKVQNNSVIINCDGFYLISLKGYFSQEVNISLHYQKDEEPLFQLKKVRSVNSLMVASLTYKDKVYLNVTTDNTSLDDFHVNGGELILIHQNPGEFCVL
Nature of the test: flow cytometry, Fab on tetracycline-inducible cell lines over-expressing each ECD (FIG. S5). How it is done: (§6) To investigate the specificity of both activating and non-functional antibodies for their receptor targets, we developed a tetracycline-inducible cell line for each protein target—CD16, NCR1, NCR3, CD244, TNFRSF9, and TNFSF4. The ECDs of these proteins were fused to a generic transmembrane domain and were expressed upon tetracycline addition.
as §2

For test [4], the target named is T4, TNFRSF9 extracellular domain fused to a generic transmembrane domain, on tetracycline-inducible FlpIn cells (UniProt Q07011 24-186).
T4 construct: extracellular domain; also called 4-1BB; not shown: transmembrane domain of platelet-derived growth factor (so in the source) with a HA tag
The test is described as above. How it is done:
as §6, §2

The target in test [5] is T5, CD244 extracellular domain fused to a generic transmembrane domain, on tetracycline-inducible FlpIn cells (UniProt Q9BZW8 22-229).
T5 construct: extracellular domain; not shown: transmembrane domain of platelet-derived growth factor (so in the source) with a HA tag
T5 sequence (looked up): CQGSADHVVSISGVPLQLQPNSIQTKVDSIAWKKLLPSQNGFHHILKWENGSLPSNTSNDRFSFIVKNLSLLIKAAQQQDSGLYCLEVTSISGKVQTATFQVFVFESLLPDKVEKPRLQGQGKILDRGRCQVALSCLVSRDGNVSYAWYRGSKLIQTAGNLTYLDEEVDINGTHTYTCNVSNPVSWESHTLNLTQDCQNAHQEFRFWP
Described as above. How it is done:
as §6, §2

Test [6] addresses T6, NCR1 extracellular domain fused to a generic transmembrane domain, on tetracycline-inducible FlpIn cells (human, UniProt O76036 22-258).
T6 construct: extracellular domain; HEK293 FlpIn cells, expression on tetracycline addition; also called NCR1 over expression cell line; not shown: transmembrane domain of platelet-derived growth factor (so in the source) with a HA tag
Described as above. How it is done:
as §6, §2

In test [7] the target is T7, CD16 extracellular domain fused to a generic transmembrane domain, on tetracycline-inducible FlpIn cells (human, UniProt P08637 17-208).
T7 construct: extracellular domain; HEK293 FlpIn cells, expression on tetracycline addition; also called CD16 over expression cell line; CD16A; not shown: transmembrane domain of platelet-derived growth factor (so in the source) with a HA tag
T7 sequence (P08637 17-208): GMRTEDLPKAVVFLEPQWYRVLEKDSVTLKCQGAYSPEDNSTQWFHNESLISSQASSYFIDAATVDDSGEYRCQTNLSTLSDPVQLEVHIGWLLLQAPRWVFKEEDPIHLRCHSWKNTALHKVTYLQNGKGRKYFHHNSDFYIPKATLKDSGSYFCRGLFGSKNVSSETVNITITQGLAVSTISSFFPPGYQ
The description is as above. How it is done:
as §6, §2

Test [8] addresses T8, NCR3 extracellular domain fused to a generic transmembrane domain, on tetracycline-inducible FlpIn cells (human, UniProt O14931 19-135).
T8 construct: extracellular domain; HEK293 FlpIn cells, expression on tetracycline addition; also called NCR3 over expression cell line; not shown: transmembrane domain of platelet-derived growth factor (so in the source) with a HA tag
T8 sequence (looked up): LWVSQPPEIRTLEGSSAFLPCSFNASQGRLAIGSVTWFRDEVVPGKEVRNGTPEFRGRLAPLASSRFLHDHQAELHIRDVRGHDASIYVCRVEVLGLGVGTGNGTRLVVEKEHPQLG
The test is described as follows: flow cytometry, Fab on tetracycline-inducible cells over-expressing the ECD (FIG. S5). How it is done: as §6, §2

Test [9] deals with T9, CD16 as expressed on NK cells (human, UniProt P08637 17-254).
T9 construct: whole, on cells; Primary human peripheral blood NK cells; PBMCs in the bispecific cytotoxicity assay; also called peripheral blood NK cells; PBMCs
T9 sequence (P08637 17-254): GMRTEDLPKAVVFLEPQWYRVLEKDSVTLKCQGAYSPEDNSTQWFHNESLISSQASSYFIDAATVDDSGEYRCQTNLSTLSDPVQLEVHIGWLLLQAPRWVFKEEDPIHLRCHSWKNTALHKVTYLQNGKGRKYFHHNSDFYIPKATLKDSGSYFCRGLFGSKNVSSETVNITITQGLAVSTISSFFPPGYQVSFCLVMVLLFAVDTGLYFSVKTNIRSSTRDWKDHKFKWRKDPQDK
The test is described as follows: flow cytometry, Fab titration on peripheral blood NK cells (FIG. S6). How it is done:
as §1, §2

For test [10], the target named is T10, CD16 extracellular domain TEV-cleavable Fc-fusion, biotinylated (human, UniProt P08637 17-208, biotinylated (site not stated)).
T10 construct: extracellular domain; Antigen of the phage selections and Fab-phage ELISAs; also called CD16A; not shown: TEV cleavage site and Fc domain
T10 sequence (P08637 17-208): as the sequence (P08637 17-208) above
The test is described as follows: Fab-phage selection and Fab-phage ELISA on biotinylated ECD Fc-fusion (antigen column of Table S1). How it is done:
as §3, §4, §5

Test [11] has as its target T8, NCR3 extracellular domain fused to a …. Nature of the test: flow cytometry, Fab on tetracycline-inducible cell lines over-expressing each ECD (FIG. S5). How it is done: as §6, §2
Test [12] has as its target T7, CD16 extracellular domain fused to a …. The test is described as follows: flow cytometry, Fab on tetracycline-inducible cells over-expressing the ECD (FIG. S5). How it is done: as §6, §2

T6 sequence (O76036 22-258): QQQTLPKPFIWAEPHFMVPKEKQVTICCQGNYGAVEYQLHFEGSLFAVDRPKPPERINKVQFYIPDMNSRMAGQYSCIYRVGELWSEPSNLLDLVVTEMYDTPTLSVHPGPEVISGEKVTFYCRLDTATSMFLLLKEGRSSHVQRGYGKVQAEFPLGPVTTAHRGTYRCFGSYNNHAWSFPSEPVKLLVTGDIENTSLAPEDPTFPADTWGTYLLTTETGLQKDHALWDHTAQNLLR

B1: NCR3.12 Fab (Fab)
heavy: EVQLVESGGGLVQPGGSLRLSCAASGFNISSSSIHWVRQAPGKGLEWVAYISSSSGYTSYADSVKGRFTISADTSKNTAYLQMNSLRAEDTAVYYCARYSYFYGGYFYWTSWGAFDYWGQGTLVTVSSASTKGPSVFPLAPSSKSTSGGTAALGCLVKDYFPEPVTVSWNSGALTSGVHTFPAVLQSSGLYSLSSVVTVPSSSLGTQTYICNVNHKPSNTKVDKKVEPKSCDKTHT
light: DIQMTQSPSSLSASVGDRVTITCRASQSVSSAVAWYQQKPGKAPKLLIYSASSLYSGVPSRFSGSRSGTDFTLTISSLQPEDFATYYCQQSSYWPFTFGQGTKVEIKRTVAAPSVFIFPPSDSQLKSGTASVVCLLNNFYPREAKVQWKVDNALQSGNSQESVTEQDSKDSTYSLSSTLTLSKADYEKHKVYACEVTHQGLSSPVTKSFNRGEC
notes: also called anti-NCR3 Fab #72
On to B1, for which the binding result was “binds” in [1]; “binds” in test [2]; “no binding” in [3]; “no binding” in test [4]; “no binding” in test [5]; “no binding” in [6]. Further, the binding result in test [7] is “no binding”; in test [8], “binds”.

B2: CD16.03 Fab (Fab)
heavy: EVQLVESGGGLVQPGGSLRLSCAASGFNFSSYSIHWVRQAPGKGLEWVASIYSSSGSTSYADSVKGRFTISADTSKNTAYLQMNSLRAEDTAVYYCARWSYDQYYDQHGYYFYYWGFDYWGQGTLVTVSSASTKGPSVFPLAPSSKSTSGGTAALGCLVKDYFPEPVTVSWNSGALTSGVHTFPAVLQSSGLYSLSSVVTVPSSSLGTQTYICNVNHKPSNTKVDKKVEPKSCDKTHT
light: DIQMTQSPSSLSASVGDRVTITCRASQSVSSAVAWYQQKPGKAPKLLIYSASSLYSGVPSRFSGSRSGTDFTLTISSLQPEDFATYYCQQSSAELITFGQGTKVEIKRTVAAPSVFIFPPSDSQLKSGTASVVCLLNNFYPREAKVQWKVDNALQSGNSQESVTEQDSKDSTYSLSSTLTLSKADYEKHKVYACEVTHQGLSSPVTKSFNRGEC
notes: also called anti-CD16 Fab #3
For B2, the binding result is “binds” in test [9]; “binds” in [10]; “no binding” in test [3]; “no binding” in test [4]; “no binding” in [5]; “no binding” in test [11]. Moreover, the binding result in test [6] was “no binding”; in test [12] it was “binds”.

B3: NCR3.19 Fab (Fab)
heavy: EVQLVESGGGLVQPGGSLRLSCAASGFNVYSYSIHWVRQAPGKGLEWVASIYSYYGSTSYADSVKGRFTISADTSKNTAYLQMNSLRAEDTAVYYCARWYQYYYIGTAAMDYWGQGTLVTVSSASTKGPSVFPLAPSSKSTSGGTAALGCLVKDYFPEPVTVSWNSGALTSGVHTFPAVLQSSGLYSLSSVVTVPSSSLGTQTYICNVNHKPSNTKVDKKVEPKSCDKTHT
light: DIQMTQSPSSLSASVGDRVTITCRASQSVSSAVAWYQQKPGKAPKLLIYSASSLYSGVPSRFSGSRSGTDFTLTISSLQPEDFATYYCQQQWYPLITFGQGTKVEIKRTVAAPSVFIFPPSDSQLKSGTASVVCLLNNFYPREAKVQWKVDNALQSGNSQESVTEQDSKDSTYSLSSTLTLSKADYEKHKVYACEVTHQGLSSPVTKSFNRGEC
notes: also called anti-NCR3 Fab #79
Regarding B3, the binding result is given as “binds” in test [1]; “binds” in [2]; “no binding” in [3]; “no binding” in test [4]; “no binding” in test [5]; “no binding” in test [6]. The results for the binding result in test [7] and in test [8] were “no binding” and “binds”, respectively.

(Values after US20240279331A1 (University of California, published 2024).)
